Test results published in article PMC4301919, “Helical Defects in MicroRNA Influence Protein Binding by TAR RNA Binding Protein”.

Key:
[1] = target: T1, TRBP-ΔC (UniProt Q15633-2 9-215); experiment: EMSA; apparent Kd; nH 4; 50 mM sodium cacodylate pH 7.0, 50 mM potassium glutamate, 5% glycerol; EMSA 0.5 pM RNA, 30 min at room temperature, gel 0.25X TBE at 10 C; CD at 10 C with 5-15 uM RNA; details: protein: recombinant; label: 5'-32P top strand (EMSA); blunt
T1 sequence: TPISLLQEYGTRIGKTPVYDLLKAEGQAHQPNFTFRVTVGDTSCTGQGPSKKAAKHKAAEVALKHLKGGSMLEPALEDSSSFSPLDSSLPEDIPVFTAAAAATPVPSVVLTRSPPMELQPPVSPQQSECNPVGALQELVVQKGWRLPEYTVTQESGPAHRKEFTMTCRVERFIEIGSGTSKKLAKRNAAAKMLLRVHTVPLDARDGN

[2] = target: T2, TRBP-dsRBD1 (UniProt Q15633-2 9-85); experiment: EMSA; apparent Kd; nH 1.5; 50 mM sodium cacodylate pH 7.0, 50 mM potassium glutamate, 5% glycerol; EMSA 0.5 pM RNA, 30 min at room temperature, gel 0.25X TBE at 10 C; CD at 10 C with 5-15 uM RNA; details: protein: recombinant; label: 5'-32P top strand (EMSA); blunt
T2 sequence: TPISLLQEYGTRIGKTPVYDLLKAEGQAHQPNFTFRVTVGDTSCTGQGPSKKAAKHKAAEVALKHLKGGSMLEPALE

[3] = target: T3, TRBP-dsRBD2 (UniProt Q15633-2 139-215); experiment: EMSA; apparent Kd; nH 2.7; 50 mM sodium cacodylate pH 7.0, 50 mM potassium glutamate, 5% glycerol; EMSA 0.5 pM RNA, 30 min at room temperature, gel 0.25X TBE at 10 C; CD at 10 C with 5-15 uM RNA; details: protein: recombinant
T3 sequence: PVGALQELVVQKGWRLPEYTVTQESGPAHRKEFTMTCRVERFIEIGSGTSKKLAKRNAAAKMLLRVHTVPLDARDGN

[4] = target: T3, TRBP-dsRBD2; experiment: EMSA; apparent Kd; nH 3.1; 50 mM sodium cacodylate pH 7.0, 50 mM potassium glutamate, 5% glycerol; EMSA 0.5 pM RNA, 30 min at room temperature, gel 0.25X TBE at 10 C; CD at 10 C with 5-15 uM RNA; details: protein: recombinant; label: 5'-32P top strand (EMSA); blunt
[5] = target: T2, TRBP-dsRBD1; experiment: EMSA; apparent Kd; nH 2.9; 50 mM sodium cacodylate pH 7.0, 50 mM potassium glutamate, 5% glycerol; EMSA 0.5 pM RNA, 30 min at room temperature, gel 0.25X TBE at 10 C; CD at 10 C with 5-15 uM RNA; details: protein: recombinant; label: 5'-32P top strand (EMSA); blunt
[6] = target: T1, TRBP-ΔC; experiment: EMSA; apparent Kd; nH >12; 50 mM sodium cacodylate pH 7.0, 50 mM potassium glutamate, 5% glycerol; EMSA 0.5 pM RNA, 30 min at room temperature, gel 0.25X TBE at 10 C; CD at 10 C with 5-15 uM RNA; details: protein: recombinant; label: 5'-32P top strand (EMSA); blunt
[7] = target: T3, TRBP-dsRBD2; experiment: EMSA; apparent Kd; nH 4.3; 50 mM sodium cacodylate pH 7.0, 50 mM potassium glutamate, 5% glycerol; EMSA 0.5 pM RNA, 30 min at room temperature, gel 0.25X TBE at 10 C; CD at 10 C with 5-15 uM RNA; details: protein: recombinant; label: 5'-32P top strand (EMSA); blunt
[8] = target: T2, TRBP-dsRBD1; experiment: EMSA; apparent Kd; nH 2.6; 50 mM sodium cacodylate pH 7.0, 50 mM potassium glutamate, 5% glycerol; EMSA 0.5 pM RNA, 30 min at room temperature, gel 0.25X TBE at 10 C; CD at 10 C with 5-15 uM RNA; details: protein: recombinant; label: 5'-32P top strand (EMSA); blunt
[9] = target: T1, TRBP-ΔC; experiment: EMSA; apparent Kd; nH >14; 50 mM sodium cacodylate pH 7.0, 50 mM potassium glutamate, 5% glycerol; EMSA 0.5 pM RNA, 30 min at room temperature, gel 0.25X TBE at 10 C; CD at 10 C with 5-15 uM RNA; details: protein: recombinant; label: 5'-32P top strand (EMSA); blunt
[10] = target: T2, TRBP-dsRBD1; experiment: EMSA; apparent Kd; nH 1.3; 50 mM sodium cacodylate pH 7.0, 50 mM potassium glutamate, 5% glycerol; EMSA 0.5 pM RNA, 30 min at room temperature, gel 0.25X TBE at 10 C; CD at 10 C with 5-15 uM RNA; details: protein: recombinant, label: 5'-32P, hairpin, 16 bp stem
[11] = target: T1, TRBP-ΔC; experiment: EMSA; apparent Kd; nH 1.1; 50 mM sodium cacodylate pH 7.0, 50 mM potassium glutamate, 5% glycerol; EMSA 0.5 pM RNA, 30 min at room temperature, gel 0.25X TBE at 10 C; CD at 10 C with 5-15 uM RNA; details: protein: recombinant; label: 5'-32P; hairpin, 16 bp stem, UUCG loop
[12] = target: T3, TRBP-dsRBD2; experiment: EMSA; apparent Kd; nH 2.4; 50 mM sodium cacodylate pH 7.0, 50 mM potassium glutamate, 5% glycerol; EMSA 0.5 pM RNA, 30 min at room temperature, gel 0.25X TBE at 10 C; CD at 10 C with 5-15 uM RNA; details: protein: recombinant; label: 5'-32P; hairpin, 16 bp stem, UUCG loop
[13] = target: T2, TRBP-dsRBD1; experiment: EMSA; apparent Kd; nH 1.0; 50 mM sodium cacodylate pH 7.0, 50 mM potassium glutamate, 5% glycerol; EMSA 0.5 pM RNA, 30 min at room temperature, gel 0.25X TBE at 10 C; CD at 10 C with 5-15 uM RNA; details: protein: recombinant, label: 5'-32P, hairpin, 16 bp stem
[14] = target: T1, TRBP-ΔC; experiment: EMSA; apparent Kd; nH 4.1; 50 mM sodium cacodylate pH 7.0, 50 mM potassium glutamate, 5% glycerol; EMSA 0.5 pM RNA, 30 min at room temperature, gel 0.25X TBE at 10 C; CD at 10 C with 5-15 uM RNA; details: protein: recombinant; label: 5'-32P; hairpin, 16 bp stem, U4 loop
[15] = target: T1, TRBP-ΔC; experiment: EMSA; apparent Kd; nH 3.1; 50 mM sodium cacodylate pH 7.0, 50 mM potassium glutamate, 5% glycerol; EMSA 0.5 pM RNA, 30 min at room temperature, gel 0.25X TBE at 10 C; CD at 10 C with 5-15 uM RNA; details: protein: recombinant; label: 5'-32P; hairpin, 16 bp stem, U6 loop
[16] = target: T3, TRBP-dsRBD2; experiment: EMSA; apparent Kd; nH >2; text says bound; 50 mM sodium cacodylate pH 7.0, 50 mM potassium glutamate, 5% glycerol; EMSA 0.5 pM RNA, 30 min at room temperature, gel 0.25X TBE at 10 C; CD at 10 C with 5-15 uM RNA; details: protein: recombinant, label: 5'-32P, hairpin, 16 bp stem
[17] = target: T1, TRBP-ΔC; experiment: EMSA; apparent Kd; nH 2.5; 50 mM sodium cacodylate pH 7.0, 50 mM potassium glutamate, 5% glycerol; EMSA 0.5 pM RNA, 30 min at room temperature, gel 0.25X TBE at 10 C; CD at 10 C with 5-15 uM RNA; details: protein: recombinant; label: 5'-32P; hairpin, 16 bp stem, U8 loop
[18] = target: T1, TRBP-ΔC; experiment: EMSA; apparent Kd; nH 1.6; 50 mM sodium cacodylate pH 7.0, 50 mM potassium glutamate, 5% glycerol; EMSA 0.5 pM RNA, 30 min at room temperature, gel 0.25X TBE at 10 C; CD at 10 C with 5-15 uM RNA; details: protein: recombinant; label: 5'-32P; hairpin with 1-nt U-bulge and A-A mismatch
[19] = target: T1, TRBP-ΔC; experiment: EMSA; apparent Kd; nH 1.1; text gives error 0.1; 50 mM sodium cacodylate pH 7.0, 50 mM potassium glutamate, 5% glycerol; EMSA 0.5 pM RNA, 30 min at room temperature, gel 0.25X TBE at 10 C; CD at 10 C with 5-15 uM RNA; details: protein: recombinant; label: 5'-32P top strand; imperfect duplex with U-bulge and A-A mismatch
[20] = target: T1, TRBP-ΔC; experiment: EMSA; apparent Kd; nH 2.7; 50 mM sodium cacodylate pH 7.0, 50 mM potassium glutamate, 5% glycerol; EMSA 0.5 pM RNA, 30 min at room temperature, gel 0.25X TBE at 10 C; CD at 10 C with 5-15 uM RNA; details: protein: recombinant; label: 5'-32P top strand; duplex with 1x1 A-A mismatch
[21] = target: T1, TRBP-ΔC; experiment: EMSA; apparent Kd; nH 5; 50 mM sodium cacodylate pH 7.0, 50 mM potassium glutamate, 5% glycerol; EMSA 0.5 pM RNA, 30 min at room temperature, gel 0.25X TBE at 10 C; CD at 10 C with 5-15 uM RNA; details: protein: recombinant; label: 5'-32P top strand; duplex with 1-nt U-bulge
[22] = target: T1, TRBP-ΔC; experiment: EMSA; apparent Kd; nH 1.9; 50 mM sodium cacodylate pH 7.0, 50 mM potassium glutamate, 5% glycerol; EMSA 0.5 pM RNA, 30 min at room temperature, gel 0.25X TBE at 10 C; CD at 10 C with 5-15 uM RNA; details: protein: recombinant; label: 5'-32P top strand (EMSA); blunt
[23] = target: T1, TRBP-ΔC; experiment: EMSA; apparent Kd; nH 3.2 (1.4 in loop section); 50 mM sodium cacodylate pH 7.0, 50 mM potassium glutamate, 5% glycerol; EMSA 0.5 pM RNA, 30 min at room temperature, gel 0.25X TBE at 10 C; CD at 10 C with 5-15 uM RNA; details: protein: recombinant; label: 5'-32P top strand (EMSA); blunt

B1: ds22 (dsRNA)
RNA 1: GUCAGCAGUGCCUUAGCAGCAC
RNA 2: GUGCUGCUAAGGCACUGCUGAC
[1]
  Kd: 600 ± 50 nM
[2]
  Kd: 3.5 ± 0.2 µM
[3]; label: 5'-32P top strand (EMSA), blunt
  Kd: 1700 ± 100 nM

B2: ds33 (dsRNA)
RNA 1: GGUCAGCAGUGCCUUAGCAGCACGUAAAUAUGG
RNA 2: CCAUAUUUACGUGCUGCUAAGGCACUGCUGACC
[4]
  Kd: 1000 ± 80 nM
[5]
  Kd: 900 ± 300 nM
[6]
  Kd: 200 ± 20 nM

B3: ds44 (dsRNA)
RNA 1: GGUCAGCAGUGCCUUAGCAGCACGUAAAUAUUGGCGUUAAGACC
RNA 2: GGUCUUAACGCCAAUAUUUACGUGCUGCUAAGGCACUGCUGACC
[7]
  Kd: 800 ± 60 nM
[8]
  Kd: 800 ± 50 nM
[9]
  Kd: 60 ± 10 nM

## GUCAGCAGUGCCUUAGUUCGCUAAGGCACUGCUGAC (structured_RNA) [ds16-tetra-stable]
[10]; UUCG loop
  Kd: 9 ± 1 µM
[11]
  Kd: 500 ± 50 nM
[12]
  Kd: 5 ± 0.7 µM

## GUCAGCAGUGCCUUAGUUUUCUAAGGCACUGCUGAC (structured_RNA) [ds16-tetra-U]
[13]; U4 loop
  Kd: 7 ± 0.9 µM
[14]
  Kd: 700 ± 50 nM
[3]; label: 5'-32P, hairpin, 16 bp stem, U4 loop
  Kd: 4000 ± 900 nM

## GUCAGCAGUGCCUUAGUUUUUUCUAAGGCACUGCUGAC (structured_RNA) [ds16-hexa-U]
[15]
  Kd: 610 ± 50 nM
[13]; U6 loop
  Kd: 10 ± 3 µM
[16]; U6 loop
  Kd: > 4 µM

## GUCAGCAGUGCCUUAGUUUUUUUUCUAAGGCACUGCUGAC (structured_RNA) [ds16-octa-U]
[17]
  Kd: 410 ± 50 nM
[10]; U8 loop
  Kd: 8 ± 3 µM
[16]; U8 loop
  Kd: > 6 µM

B4: pre-mir-16-1 (structured_RNA)
RNA: UAGCAGCACGUAAAUAUUGGCGUUAAGAUUCUAAAAUUAUCUCCAGUAUUAACUGUGCUGCUGAA
[18]
  Kd: 610 ± 20 nM

B5: miR-16-1/miR-16-1* (dsRNA)
RNA 1: UAGCAGCACGUAAAUAUUGGCG
RNA 2: CCAGUAUUAACUGUGCUGCUGAA
[19]
  Kd: 1100 ± 10 nM

B6: A-mismatch (dsRNA)
RNA 1: GGUCAGCACGUAAAUAUUGUCC
RNA 2: GGACAGUAUUAACGUGCUGUAC
[20]
  Kd: 1780 ± 80 nM

B7: U-bulge (dsRNA)
RNA 1: GGUCAGCACGUAAAUAUUGUCC
RNA 2: GGACAGUAUUUACUGUGCUGAUC
[21]
  Kd: 300 ± 30 nM

B8: ds12 (dsRNA)
RNA 1: GUCAGCAGUGCC
RNA 2: GGCACUGCUGAC
[22]
  Kd: 2000 ± 300 nM

B9: ds16 (dsRNA)
RNA 1: GUCAGCAGUGCCUUAG
RNA 2: CUAAGGCACUGCUGAC
[23]
  Kd: 800 ± 70 nM
